Changes are numbered by the printed parent chain. Numbers in names are those of the source.
T1: human IL-17F (human, UniProt Q96PD4 31-163, biotinylated with Sulfo-NHS-LC-Biotin in the AlphaScreen assays only)
T1 construct: also called hIL-17F; recombinant human IL-17F
T1 sequence: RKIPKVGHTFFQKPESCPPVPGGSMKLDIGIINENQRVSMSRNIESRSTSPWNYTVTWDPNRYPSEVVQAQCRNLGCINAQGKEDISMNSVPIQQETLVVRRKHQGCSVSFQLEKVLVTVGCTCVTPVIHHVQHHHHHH

T2: human IL-17F (human, UniProt Q96PD4 31-163)
T2 construct: made in Hek293 cells (GenBank AF384857); also called hIL-17F; hIL17F
T2 sequence: T1 sequence

B1: 03E05 (VHH)
VHH: EVQLVESGGGLVQAGGSLRLSCAASGVTFDDYSIGWFRQAPGKEREGVSCISSSDGIPYYSDFVKGRFTTSIDNAKNTVYLQMNSLKPEDTAVYYCAAGFGRLCAEFDSWGQGTQVTVSS
notes: Class 1 Nanobody (anti-IL-17A); not shown: c-myc, His6 tag
B2: IL17MS3015 (VHH, name in Kabat numbering)
VHH: EVQLVESGGGLVQPGGSLRLSCTASGTIVNIHVMGWYRQAPGKQRELVALIFSGGSADYADSVKGRFTISRDNSKNTVYLQMNSLRPEDTAVYYCAAEIGYYSGGTYYSSEAHWGQGTLVTVSS
notes: basic + Q18L, A84P; Kabat positions
B3: IL17MS3016 (VHH, name in Kabat numbering)
VHH: B2 VHH with L18Q, T23A
notes: basic + T23A, A84P; Kabat positions
B4: 02E03 (VHH)
VHH: EVQLVESGGGLVQPGGSLRLSCAASGFTFSSYAMSWARQAPGEGLEWVSDINSGGTRTTYADSVKGRFTISRDNAKNTLYLQMNSLKPEDTAVYVCAKLSVFRSQLGGKYYGGDYENRGQGTQVTVSS
notes: as for B1
B5: 01D02 (VHH)
VHH: EVQLVESGGGLVQAGGSLRLSCAASGLSFSSYALGWFRQAPGKERDFVAAINWSGDNTHYADSVKGRFTISRDNAKNTVSLQMNSLKPEDTAVYYCAAQLGYESGYSLTYDYDYWGQGTQVTVSS
notes: as for B1
B6: IL17MS3018 (VHH)
VHH: EVQLVESGGGLVQPGGSLRLSCAASGRTYDAMGWLRQAPGKEREFVAAISGSGDDTYYADSVKGRFTISKDNSGITMYLQMNSLRPEDTAVYYCATRRGLYYVWDSNDYENWGQGTLVTVSS
notes: basic variant of IL17MS13E02; Kabat numbering; also called IL17MS3018 basic
B7: IL17MS3036 (VHH)
VHH: B6 VHH with P14A, S73A, R85K, S106T, L117Q
notes: variant of IL17MS13E02; Kabat numbering
B8: IL17MS3019 (VHH)
VHH: B6 VHH with L35F
notes: as for B7
B9: IL17MS3037 (VHH)
VHH: B6 VHH with P14A, S73A, R85K, S106A, L117Q
notes: as for B7
B10: IL17MS3020 (VHH)
VHH: B6 VHH with K70R
notes: as for B7
B11: IL17MS3021 (VHH)
VHH: B6 VHH with G74K
notes: as for B7
B12: IL17MS3022 (VHH)
VHH: B6 VHH with I75N
notes: as for B7
B13: IL17MS3035 (VHH)
VHH: B6 VHH with P14A, S73A, M77L, R85K, L117Q
notes: as for B7
B14: IL17MS3027 (VHH)
VHH: B6 VHH with K70R, I75N
notes: as for B7
B15: IL17MS3034 (VHH)
VHH: B6 VHH with P14A, M32L, S73A, R85K, L117Q
notes: as for B7
B16: IL17MS3032 (VHH)
VHH: B6 VHH with K70R, G74K, I75N
notes: as for B7
B17: 17C01 (VHH)
VHH: EVQLVESGGRLVQAGGSLRLPCAASGRTFTSYPMGWFRQAPGKEREFVAAISMSGDDAAYADFVRGRFTISRDDARNTVYLHMTSLKPEDTAVYYCAARTSYDGTYDYIDDYSYWGQGTQVTVSS
notes: Class 4 Nanobody (cross-reactive: anti-IL-17A, IL-17F and IL-17A/F); not shown: c-myc, His6 tag
B18: 18B05 (VHH)
VHH: EVQLVKSGGGLVQPGGSLRLSCAASGGTFSLFAMGWFREAPGKEREFVAAIRWSDGSSYYADSVKGRFTISRDNAKNAVHLQSNSLKSEDTAVYYCYADVQGGLHRYWGQGTQVTVSS
notes: as for B17

Columns and labels:
[1] = molecular target: T3, human IL-17A (human, UniProt Q16552 24-155, biotinylated with Sulfo-NHS-LC-Biotin in the AlphaScreen assays only); assay: AlphaScreen competition, hIL-17A - IL-17RC-Fc;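 also: Read-out after 1 h at room temperature with the receptor Fc-fusion, Acceptor beads and streptavidin-coated Donor beads present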
T3 construct: also called hIL-17A; recombinant human IL-17A
T3 sequence (Q16552 other isoform, or with tags, fused parts or gaps): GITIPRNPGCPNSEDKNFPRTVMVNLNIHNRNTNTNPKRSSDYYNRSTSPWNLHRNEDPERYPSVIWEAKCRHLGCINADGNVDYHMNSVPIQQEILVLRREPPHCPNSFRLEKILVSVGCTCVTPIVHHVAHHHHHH
Description: (§1) To this mixture, the IL-17RA or IL-17RC Fc-fusions, Acceptor beads and the streptavidin Donor beads were added and further incubated for 1 hour at RT.

[2] = molecular target: T4, human IL-17A/F heterodimer (human, UniProt Q16552 24-155; Q96PD4 31-163, limits assumed, biotinylated with Sulfo-NHS-LC-Biotin in the AlphaScreen assays only); assay: AlphaScreen competition, hIL-17A/F - IL-17RA-Fc
T4 construct: also called hIL-17A/F
Description: as §1

[3] = molecular target: T1, human IL-17F; assay: SPR Biacore, hIL-17F on chip; periplasmic extract (*); NB = no binding
[4] = molecular target: T3, human IL-17A; assay: AlphaScreen competition, hIL-17A - IL-17RA-Fc;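 also: receptor Fc-fusion plus Acceptor and streptavidin Donor beads incubated with the mixture for 1 h at room temperature before reading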
Description: as §1

[5] = molecular target: T3, human IL-17A; assay: cell-based or functional assay
[6] = molecular target: T3, human IL-17A; assay: SPR Biacore, hIL-17A on chip; periplasmic extract (*)
Description: (§2) Off-rates of the periplasmic extracts containing anti-IL-17 Nanobodies were measured by Surface Plasmon Resonance (SPR) using a Biacore T100 instrument. […] Periplasmic extracts containing IL-17 neutralizing Nanobodies were injected for 2 minutes at a flow rate of 45 μl/min to allow binding to chip-bound antigen. Next, binding buffer without periplasmic extracts was sent over the chip at the same flow rate to allow spontaneous dissociation of bound Nanobody. From the sensorgrams obtained for the different periplasmic extracts koff-values (k₄) were calculated.

[7] = molecular target: T5, human IL-17A (human, UniProt Q16552 24-155); assay: AlphaScreen IL-17A-IL-17RA, average
T5 construct: secreted form (GenBank U32659) expressed in Hek293 with C-terminal 6-His; also called hIL-17A; IL-17A-6HIS
T5 sequence (Q16552 other isoform, or with tags, fused parts or gaps): as above

[8] = molecular target: T4, human IL-17A/F heterodimer; assay: AlphaScreen competition, hIL-17A/F - IL-17RC-Fc
Description: as §1

[9] = molecular target: T2, human IL-17F; assay: AlphaScreen hIL-17F-IL-17RC; vs IL17MS13E02
[10] = molecular target: T2, human IL-17F; assay: SPR (Biacore) off-rate
[11] = molecular target: T6, human IL-17A/F heterodimer (human, UniProt Q16552 24-155; Q96PD4 31-163, limits assumed); assay: SPR (Biacore) off-rate
T6 construct: bought, made in E. coli (R&D Systems 5194-IL/CF); also called hIL-17A/F; hIL17A/F

[12] = molecular target: T7, human IL-17A (human, UniProt Q16552 24-155); assay: SPR (Biacore) off-rate
T7 construct: secreted form made in Hek293 cells (GenBank U32659); also called hIL-17A; hIL17A
T7 sequence (Q16552 other isoform, or with tags, fused parts or gaps): as above

[13] = molecular target: T7, human IL-17A; assay: AlphaScreen hIL-17A-IL-17RA; vs IL17MS13E02
[14] = molecular target: T4, human IL-17A/F heterodimer; assay: cell-based or functional assay
Target sequence in this assay (Q16552 24-155 limits assumed, chain 1 of 2, one chain of several): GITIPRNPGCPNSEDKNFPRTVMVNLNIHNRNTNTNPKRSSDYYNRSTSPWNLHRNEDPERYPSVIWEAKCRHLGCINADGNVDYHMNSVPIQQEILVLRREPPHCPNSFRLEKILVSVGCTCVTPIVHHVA

[15] = molecular target: T1, human IL-17F; assay: SPR Biacore, hIL-17F on chip; purified protein
Description: as §2

[16] = molecular target: T3, human IL-17A; assay: SPR Biacore, hIL-17A on chip; purified protein
[17] = molecular target: T4, human IL-17A/F heterodimer; assay: SPR Biacore, hIL-17A/F on chip; purified protein
Target sequence in this assay (Q16552 24-155 limits assumed, chain 1 of 2, one chain of several): as above

[18] = molecular target: T1, human IL-17F; assay: AlphaScreen competition, hIL-17F - IL-17RA-Fc
Description: as §1

[19] = molecular target: T1, human IL-17F; assay: AlphaScreen competition, hIL-17F - IL-17RC-Fc
Description: as §1

Binder | IC50 fold difference vs WT [9] | koff [10] | koff [11] | koff [12] | IC50 fold difference vs WT [13] | further results
B1 |  |  |  |  |  | IC50 [1]: 0.38 nM; IC50 [2]: > 250 nM; binding result [3]: no binding; IC50 [4]: 0.058 nM; IL-17A-induced IL-6 production in HT-1080 cells, Emax [5]: 100%; IL-17A-induced IL-6 production in HT-1080 cells, IC50 [5]: 4 nM; koff [6]: 0.0001 s⁻¹
B2 |  |  |  |  |  | IC50 [7]: 0.171 nM
B3 |  |  |  |  |  | IC50 [7]: 0.177 nM
B4 |  |  |  |  |  | IC50 [8]: > 250 nM; IC50 [1]: 0.778 nM; binding result [3]: no binding; IC50 [4]: 0.256 nM; IL-17A-induced IL-6 production in HT-1080 cells, Emax [5]: 99.3%; IL-17A-induced IL-6 production in HT-1080 cells, IC50 [5]: 16.4 nM; koff [6]: 0.0009 s⁻¹
B5 |  |  |  |  |  | IC50 [8]: 94.7 nM; IC50 [1]: 0.363 nM; IC50 [2]: 71.7 nM; binding result [3]: no binding; IC50 [4]: 0.13 nM; IL-17A-induced IL-6 production in HT-1080 cells, Emax [5]: 101%; IL-17A-induced IL-6 production in HT-1080 cells, IC50 [5]: 4.8 nM; koff [6]: 0.00044 s⁻¹
B6 | 0.8 fold | 0.00267 s⁻¹ | 1.38e-05 s⁻¹ | 9.26e-05 s⁻¹ | 1.13 fold | 
B7 | 2.2 fold | 0.0044 s⁻¹ | 4.31e-05 s⁻¹ | 0.000132 s⁻¹ | 2.06 fold | 
B8 | 4.6 fold | 0.0349 s⁻¹ | 0.00031 s⁻¹ | 0.000745 s⁻¹ | 3.72 fold | 
B9 | 1 fold | 0.00367 s⁻¹ | 4.67e-05 s⁻¹ | 0.000116 s⁻¹ | 1.61 fold | 
B10 | 1.3 fold | 0.00147 s⁻¹ | < 1e-06 s⁻¹ | 2.84e-05 s⁻¹ | 1.24 fold | 
B11 | 0.9 fold | 0.00432 s⁻¹ | 6.43e-05 s⁻¹ | 0.000216 s⁻¹ | 2.75 fold | 
B12 | 0.9 fold | 0.0024 s⁻¹ | 9.89e-06 s⁻¹ | 6.41e-05 s⁻¹ | 1.17 fold | 
B13 | 1.22 fold | 0.00431 s⁻¹ | 3.65e-05 s⁻¹ | 7.59e-05 s⁻¹ | 2 fold | 
B14 | 0.6 fold | 0.0013 s⁻¹ |  |  | 1.23 fold | 
B15 | 2.7 fold | 0.00596 s⁻¹ | 4.02e-05 s⁻¹ | 0.000116 s⁻¹ | 1.68 fold | 
B16 | 0.5 fold | 0.00083 s⁻¹ |  |  | 1.42 fold | 
B17 |  |  |  |  |  | IL-17A/F-induced IL-6 production in HT-1080 cells, Emax [14]: 107%; IL-17A/F-induced IL-6 production in HT-1080 cells, IC50 [14]: 41.8 nM; koff [15]: 0.056 s⁻¹; IC50 [8]: 0.801 nM; IC50 [1]: 0.169 nM; IC50 [2]: 0.264 nM; koff [16]: 0.00029 s⁻¹; koff [17]: 0.00075 s⁻¹; IC50 [18]: 0.296 nM; IC50 [4]: 0.066 nM; IL-17A-induced IL-6 production in HT-1080 cells, Emax [5]: 105%; IL-17A-induced IL-6 production in HT-1080 cells, IC50 [5]: 15.1 nM; IC50 [19]: 0.168 nM
B18 |  |  |  |  |  | IL-17A/F-induced IL-6 production in HT-1080 cells, Emax [14]: 118%; IL-17A/F-induced IL-6 production in HT-1080 cells, IC50 [14]: 37.1 nM; koff [15]: 0.14 s⁻¹; IC50 [8]: 0.087 nM; IC50 [1]: 0.408 nM; IC50 [2]: 0.231 nM; koff [16]: 0.00022 s⁻¹; koff [17]: 0.00012 s⁻¹; IC50 [18]: 36.6 nM; IC50 [4]: 0.173 nM; IL-17A-induced IL-6 production in HT-1080 cells, Emax [5]: 104%; IL-17A-induced IL-6 production in HT-1080 cells, IC50 [5]: 20.6 nM; IC50 [19]: 13.3 nM

Source: patent US20210130452A1 (Merck KGaA, published 2021)
